The values below come from the supplement of paper PMC10567573.

To fix the notation:
B1: PTPRD (parent)
chain: ITWFKDFLPVDTSNNNGRIKQLRS
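Also: lentivirally expressed fusions sorted by FACS into six bins by GFP to DsRed ratio, PSI derived from sequencing read proportions per bin multiplied by bin number.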

The variants in the series derive from B1. Put plainly: protein stability index of a GFP-peptide fusion (GPS, HEK-293T) (PSI 1-6); higher = more stable. The settings on record: c terminus: a fixed tail appended.
For the variant ITWFKDFLPVDTSNNNGRIKQLRN [S24N], the protein stability index turned out to be 1.88. Regarding ITWFKDFLPVDTSNNNGRIKQLRK [S24K], the protein stability index was determined as 2.15. As for ITWFKDFLPVDTSNNNGRIKQLRA [S24A], the figure is 1.96. As to ITWFKDFLPVDTSNNNGRIKQLRC [S24C], the protein stability index came to 2.32.

With ITWFKDFLPVDTSNNNGRIKQLRY [S24Y], the protein stability index turned out to be 1.94. In the case of ITWFKDFLPVDTSNNNGRIKQLRD [S24D], the protein stability index was 1.9.

On to ITWFKDFLPVDTSNNNGRIKQLRH [S24H], for which the protein stability index was found to be 1.74. With ITWFKDFLPVDTSNNNGRIKQLRR [S24R], the protein stability index was 2.18. As for ITWFKDFLPVDTSNNNGRIKQLRE [S24E], the figure is 1.77. As to ITWFKDFLPVDTSNNNGRIKQLRT [S24T], the protein stability index stood at 1.51. In the case of ITWFKDFLPVDTSNNNGRIKQLRL [S24L], the protein stability index is 1.41. In the case of ITWFKDFLPVDTSNNNGRIKQLRQ [S24Q] it was 1.78; in that of ITWFKDFLPVDTSNNNGRIKQLRM [S24M], 1.54; in that of ITWFKDFLPVDTSNNNGRIKQLRG [S24G], 2.34.

With ITWFKDFLPVDTSNNNGRIKQLRF [S24F], the protein stability index stood at 1.69. For the variant ITWFKDFLPVDTSNNNGRIKQLRV [S24V], the protein stability index was determined as 1.52. For ITWFKDFLPVDTSNNNGRIKQLRW [S24W], the protein stability index was found to be 2.63. As for ITWFKDFLPVDTSNNNGRIKQLRP [S24P], the protein stability index turned out to be 1.34. Consider ITWFKDFLPVDTSNNNGRIKQLLS [R23L], for which the protein stability index is 1.81.

For the variant ITWFKDFLPVDTSNNNGRIKQLDS [R23D], the protein stability index came out at 2.39. In the case of ITWFKDFLPVDTSNNNGRIKQLFS [R23F], the protein stability index came out at 1.88.

Take ITWFKDFLPVDTSNNNGRIKQLCS [R23C]: the protein stability index was determined as 1.43. As for ITWFKDFLPVDTSNNNGRIKQLAS [R23A], the protein stability index stood at 2.89. On to ITWFKDFLPVDTSNNNGRIKQLVS [R23V], for which the protein stability index was 1.91.

As to ITWFKDFLPVDTSNNNGRIKQLIS [R23I], the protein stability index was determined as 1.88. Take ITWFKDFLPVDTSNNNGRIKQLKS [R23K]: the protein stability index is 2.55. For the variant ITWFKDFLPVDTSNNNGRIKQLWS [R23W], the protein stability index was found to be 1.11. Turning to ITWFKDFLPVDTSNNNGRIKQLES [R23E], the protein stability index was determined as 2.77. With ITWFKDFLPVDTSNNNGRIKQLPS [R23P], the protein stability index was determined as 1.8. With ITWFKDFLPVDTSNNNGRIKQLTS [R23T], the protein stability index is 2.04.

On to ITWFKDFLPVDTSNNNGRIKQLSS [R23S], for which the protein stability index turned out to be 1.83. Turning to ITWFKDFLPVDTSNNNGRIKQLYS [R23Y], the protein stability index came to 1.63. In the case of ITWFKDFLPVDTSNNNGRIKQLHS [R23H] it was 1.74; in that of ITWFKDFLPVDTSNNNGRIKQLMS [R23M], 1.88.

For the variant ITWFKDFLPVDTSNNNGRIKQLNS [R23N], the protein stability index turned out to be 1.83. Consider ITWFKDFLPVDTSNNNGRIKQLQS [R23Q], for which the protein stability index amounted to 2.09. As to ITWFKDFLPVDTSNNNGRIKQLGS [R23G], the protein stability index was found to be 1.74. As for ITWFKDFLPVDTSNNNGRIKCLRS [Q21C], the protein stability index came out at 1.52. For the variant ITWFKDFLPVDTSNNNGRIKYLRS [Q21Y], the protein stability index is 1.93. With ITWFKDFLPVDTSNNNGRIKPLRS [Q21P], the protein stability index was found to be 2.01. As to ITWFKDFLPVDTSNNNGRIKTLRS [Q21T], the protein stability index turned out to be 1.69. As to ITWFKDFLPVDTSNNNGRIKFLRS [Q21F], the protein stability index turned out to be 1.75. As to ITWFKDFLPVDTSNNNGRIKSLRS [Q21S], the protein stability index is 2.38. In the case of ITWFKDFLPVDTSNNNGRIKALRS [Q21A], the protein stability index was determined as 1.57. ITWFKDFLPVDTSNNNGRIKWLRS [Q21W]: the protein stability index was found to be 2.24.

Regarding ITWFKDFLPVDTSNNNGRIKMLRS [Q21M], the protein stability index is 1.45. With ITWFKDFLPVDTSNNNGRIKNLRS [Q21N], the protein stability index stood at 1.99. As to ITWFKDFLPVDTSNNNGRIKGLRS [Q21G], the protein stability index is 2.28. Regarding ITWFKDFLPVDTSNNNGRIKRLRS [Q21R], the protein stability index amounted to 1.55. For the variant ITWFKDFLPVDTSNNNGRIKKLRS [Q21K], the protein stability index was 2.58. With ITWFKDFLPVDTSNNNGRIKHLRS [Q21H], the protein stability index was 1.56. As to ITWFKDFLPVDTSNNNGRIKDLRS [Q21D], the protein stability index stood at 2.17. With ITWFKDFLPVDTSNNNGRIKELRS [Q21E], the protein stability index was found to be 2.2. ITWFKDFLPVDTSNNNGRIKLLRS [Q21L]: the protein stability index was 1.73. Consider ITWFKDFLPVDTSNNNGRIKVLRS [Q21V], for which the protein stability index came to 1.67. With ITWFKDFLPVDTSNNNGRIKILRS [Q21I], the protein stability index was 2.23. For the variant ITWFKDFLPVDTSNNNGRIKQGRS [L22G], the protein stability index turned out to be 1.84. In the case of ITWFKDFLPVDTSNNNGRIKQQRS [L22Q] it was 1.62; in that of ITWFKDFLPVDTSNNNGRIKQYRS [L22Y], 2.73; in that of ITWFKDFLPVDTSNNNGRIKQDRS [L22D], 2. As to ITWFKDFLPVDTSNNNGRIKQFRS [L22F], the protein stability index worked out at 2.01. As for ITWFKDFLPVDTSNNNGRIKQKRS [L22K], the protein stability index came out at 1.77. As for ITWFKDFLPVDTSNNNGRIKQARS [L22A], the protein stability index was 1.69. For ITWFKDFLPVDTSNNNGRIKQNRS [L22N], the protein stability index came to 2.01. ITWFKDFLPVDTSNNNGRIKQPRS [L22P]: the protein stability index turned out to be 1.63. As for ITWFKDFLPVDTSNNNGRIKQIRS [L22I], the protein stability index is 2.24. Take ITWFKDFLPVDTSNNNGRIKQRRS [L22R]: the protein stability index came out at 1.83.

On to ITWFKDFLPVDTSNNNGRIKQWRS [L22W], for which the protein stability index turned out to be 1.84. In the case of ITWFKDFLPVDTSNNNGRIKQMRS [L22M] it was 1.88; in that of ITWFKDFLPVDTSNNNGRIKQHRS [L22H], 2.28. For the variant ITWFKDFLPVDTSNNNGRIKQERS [L22E], the protein stability index was found to be 2.07.

With ITWFKDFLPVDTSNNNGRIKQVRS [L22V], the protein stability index was found to be 1.62. In the case of ITWFKDFLPVDTSNNNGRIKQSRS [L22S] it was 2.04; in that of ITWFKDFLPVDTSNNNGRIKQCRS [L22C], 1.61; in that of ITWFKDFLPVDTSNNNGRIKQTRS [L22T], 2.12. As for ITWFKDFLPVDTSNNNGRIYQLRS [K20Y], the figure is 2.19; as for ITWFKDFLPVDTSNNNGRIGQLRS [K20G], 1.58. Turning to ITWFKDFLPVDTSNNNGRIFQLRS [K20F], the protein stability index was 1.98. On to ITWFKDFLPVDTSNNNGRIVQLRS [K20V], for which the protein stability index is 1.68.

With ITWFKDFLPVDTSNNNGRIAQLRS [K20A], the protein stability index worked out at 1.66. Consider ITWFKDFLPVDTSNNNGRIHQLRS [K20H], for which the protein stability index was 1.63. In the case of ITWFKDFLPVDTSNNNGRIWQLRS [K20W] it was 1.95; in that of ITWFKDFLPVDTSNNNGRISQLRS [K20S], 2.72; in that of ITWFKDFLPVDTSNNNGRIPQLRS [K20P], 1.61. As for ITWFKDFLPVDTSNNNGRIDQLRS [K20D], the protein stability index turned out to be 2.05.

Regarding ITWFKDFLPVDTSNNNGRIQQLRS [K20Q], the protein stability index came out at 1.94. Turning to ITWFKDFLPVDTSNNNGRIIQLRS [K20I], the protein stability index is 1.31.

Take ITWFKDFLPVDTSNNNGRILQLRS [K20L]: the protein stability index is 2. With ITWFKDFLPVDTSNNNGRIRQLRS [K20R], the protein stability index was determined as 1.53. For ITWFKDFLPVDTSNNNGRIMQLRS [K20M], the protein stability index is 1.55. Turning to ITWFKDFLPVDTSNNNGRICQLRS [K20C], the protein stability index came out at 1.43. With ITWFKDFLPVDTSNNNGRIEQLRS [K20E], the protein stability index was 1.74. For ITWFKDFLPVDTSNNNGRITQLRS [K20T], the protein stability index amounted to 1.95. As for ITWFKDFLPVDTSNNNGRINQLRS [K20N], the protein stability index amounted to 2.08.
